Data as given in patent publication US20160272691A1, “COMPOSITIONS AND METHODS FOR TREATING CONDITIONS ASSOCIATED WITH y-HERPESVIRUSES” (NDSU RESEARCH FOUNDATION, priority 2013, published 2016).

Columns and labels:
[1] = target: T1, His6-tagged Bcl-XL (residues 1-208, N52D, N66D) (human), Q07817; assay: ITC
T1 chain: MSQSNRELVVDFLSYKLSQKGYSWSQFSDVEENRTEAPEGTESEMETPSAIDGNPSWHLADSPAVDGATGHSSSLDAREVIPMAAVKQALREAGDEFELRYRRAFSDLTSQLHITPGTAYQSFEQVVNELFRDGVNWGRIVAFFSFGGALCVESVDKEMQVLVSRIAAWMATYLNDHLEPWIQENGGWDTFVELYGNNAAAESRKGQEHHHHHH

[2] = target: T2, γHV68 M11 residues 1-136 (murine γHV68), P89884; assay: ITC
T2 chain: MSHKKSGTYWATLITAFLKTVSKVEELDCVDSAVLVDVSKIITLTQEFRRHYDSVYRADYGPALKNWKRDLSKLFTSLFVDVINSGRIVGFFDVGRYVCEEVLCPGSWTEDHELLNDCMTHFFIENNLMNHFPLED

[3] = target: T1, His6-tagged Bcl-XL (residues 1-208, …); assay: ITC, 25 °C
[4] = target: T2, γHV68 M11 residues 1-136 (murine …); assay: ITC, 25 °C
[5] = target: T1, His6-tagged Bcl-XL (residues 1-208, …); assay: ITC (Table 4; quantity and unit in Table 1)
[6] = target: T2, γHV68 M11 residues 1-136 (murine …); assay: ITC (Table 4; quantity and unit in Table 1)
[7] = target: Bcl-2, P10415; assay: not stated in the sentence (ITC implied)
[8] = target: KSHV Bcl-2 (KSHV); assay: not stated in the sentence (ITC implied)
[9] = target: Bcl-2, P10415; assay: ITC (Table 4; quantity and unit in Table 1)

Chain of Bcl-2, P10415 (P10415 1-211 limits assumed): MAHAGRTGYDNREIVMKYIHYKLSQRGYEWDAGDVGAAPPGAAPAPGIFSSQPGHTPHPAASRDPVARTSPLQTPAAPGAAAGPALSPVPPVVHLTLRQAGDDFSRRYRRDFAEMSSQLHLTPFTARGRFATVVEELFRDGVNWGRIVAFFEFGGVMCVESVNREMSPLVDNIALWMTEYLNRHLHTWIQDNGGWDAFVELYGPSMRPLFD

Binder	Kd [3] [µM]	ΔG [3] [kcal/mol]	ΔH [3] [kcal/mol]	ΔS [3] [J/K · mol]	Kd [4] [µM]	ΔG [4] [kcal/mol]	ΔH [4] [kcal/mol]	ΔS [4] [J/K · mol]	Kd [5] [µM]	Kd [6] [µM]	further results
GSGTMENLSRRLKVTGDLADIMSGQT (modifications not checked) [Beclin 1 BH3D-derived peptide F123A]	408	-4.63	-7.34	-38	5.2	-7.22	-14.2	-97.8	408	5.2	fold weakening of binding versus WT BH3D [1]: 10 fold; fold weakening of binding versus WT BH3D [2]: 4 fold
GSGTMENLSRRAKVTGDLFDIMSGQT (modifications not checked) [Beclin 1 BH3D-derived peptide L116A]	–	–	–	–	178	-5.11	-8.7	-50.3	–	178	fold reduction of binding affinity versus WT BH3D [2]: > 70 fold
GSGTMENLSRRLKVTEDLFDIMSGQT (modifications not checked) [Beclin 1 BH3D-derived peptide G120E]	–	–	–	–	36.5	-6.06	-12.5	-90	–	36.5	fold reduction of binding affinity versus WT BH3D [2]: 26 fold
GSGTMENLSRRLKVTEALFDIMSGQT (modifications not checked) [Beclin 1 BH3D-derived G120E+D121A double mutant peptide]	–	–	–	–	6.43	-7.08	-14.9	-110	–	6.4	fold better affinity versus the G120E peptide [2]: 5.7 fold; fold weaker affinity versus WT BH3D [2]: 4.7 fold
GSGTMENASRRLKVTGDLFDIMSGQT (modifications not checked) [Beclin 1 BH3D-derived peptide L112A]	110	-5.4	-10.1	-66.3	4.33	-7.32	-11.3	-56.1	110	4.3	fold reduction of binding versus WT BH3D [2]: 3 fold
GSGTMENLSRRLKVTGDLFDIMSGQT (modifications not checked) [Beclin 1 BH3D peptide, wild type]	1.95	-7.79	-10.4	-36.9	1.38	-8.01	-17	-126	1.9	1.4	fold difference in TΔSapp versus binding to Bcl-XL [2]: 4 fold; fold difference in ΔHapp versus binding to Bcl-XL [2]: 2 fold; Kd [7]: 9 µM; Kd [8]: 54 µM; Kd [9]: 10.4 µM
GSGTMENLSRRLKVTGALFDIMSGQT (modifications not checked) [Beclin 1 BH3D-derived peptide D121A]	–	–	–	–	–	–	–	–	–	1.3	–
GSGTMENLSRRLAVTGDLFDIMSGQT (modifications not checked) [Beclin 1 BH3D-derived peptide K117A]	18.9	-6.45	-9	-35.8	0.66	-8.44	-16.5	-113	18.9	0.7	fold weakening of binding versus WT BH3D [1]: 10 fold; fold improvement of binding versus WT BH3D [2]: 2 fold; Kd [9]: 24.5 µM
